Experimental findings from article PMC6241527 are described below.

The target in experiment [1] is H1 hemagglutinin (A/Solomon Islands/3/06) (influenza A virus (A/Solomon Islands/3/06, H1)). In words: crystal structure.
In experiment [2] the target is H7 hemagglutinin (A/Shanghai/2/13) (influenza A virus (A/Shanghai/2/13, H7)). In words: crystal structure.

The term stoichiometry N denotes a count of units in the complex or per binding partner.

“H1 hemagglutinin (A/Solomon Islands/3/06) (natural protein)” yielded a stoichiometry N in experiment [1] of 3.
Take “H7 hemagglutinin (A/Shanghai/2/13) (natural protein)”: in experiment [2], the stoichiometry N was determined as 3.
